The target of one assay is T1, PVR (UniProt P15151 21-343, limits assumed).
T1 construct: also called poliovirus receptor; CD155
T1 sequence (looked up): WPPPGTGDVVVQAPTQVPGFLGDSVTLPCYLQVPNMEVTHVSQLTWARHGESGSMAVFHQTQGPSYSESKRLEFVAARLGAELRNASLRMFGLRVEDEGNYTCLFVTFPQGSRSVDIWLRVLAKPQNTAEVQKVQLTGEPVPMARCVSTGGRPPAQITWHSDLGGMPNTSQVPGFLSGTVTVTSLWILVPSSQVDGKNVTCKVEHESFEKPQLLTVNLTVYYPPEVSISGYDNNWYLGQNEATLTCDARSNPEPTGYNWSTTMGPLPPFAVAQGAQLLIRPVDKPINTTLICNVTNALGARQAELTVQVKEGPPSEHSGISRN
The assay can be described thus: not described at this place.

A further assay addresses T2, PVRL2 (human, UniProt Q92692 32-360, limits assumed).
T2 construct: also called PVLR2; CD112
T2 sequence (looked up): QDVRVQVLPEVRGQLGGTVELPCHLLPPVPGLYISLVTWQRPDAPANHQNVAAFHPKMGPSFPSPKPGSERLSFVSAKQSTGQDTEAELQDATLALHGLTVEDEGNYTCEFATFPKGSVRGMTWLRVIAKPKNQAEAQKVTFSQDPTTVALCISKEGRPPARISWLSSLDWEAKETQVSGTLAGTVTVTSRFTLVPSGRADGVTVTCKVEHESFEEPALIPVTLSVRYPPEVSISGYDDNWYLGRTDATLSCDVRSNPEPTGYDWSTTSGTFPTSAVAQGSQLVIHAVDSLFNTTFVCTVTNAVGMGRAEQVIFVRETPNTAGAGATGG
The assay can be described thus: not described at this place.

B1: TIGIT (receptor, human, UniProt Q495A1 22-141, looked up)
chain: MMTGTIETTGNISAEKGGSIILQCHLSSTTAQVTQVNWEQQDQLLAICNADLGWHISPSFKDRVAPGPGLGLTLQSLTVNDTGEYFCIYHTYPDGTYTGRIFLEVLESSVAEHGARFQIP
notes: also called human TIGIT
On to B1, for which the binding result in the assay with PVR is “binds”.

B2: PVRIG (receptor, human, UniProt Q6DKI7 41-171, looked up)
chain: TPEVWVQVRMEATELSSFTIRCGFLGSGSISLVTVSWGGPNGAGGTTLAVLHPERGIRQWAPARQARWETQSSISLILEGSGASSPCANTTFCCKFASFPEGSWEACGSLPPSSDPGLSAPPTPAPILRAD
notes: also called CD112R; Human Poliovirus Receptor Related Immunoglobulin Domain Containing Protein
Regarding B2, the binding result with PVRL2 is given as “binds”.
